Experiments:
[1] = molecular target: S-adenosylmethionine synthetase (AdoMet synthetase, MAT) from Neisseria meningitidis WUE2594 (Neisseria meningitidis WUE2594); test: dynamic light scattering
[2] = molecular target: S-adenosylmethionine synthetase (AdoMet synthetase, MAT) from Neisseria meningitidis WUE2594 (Neisseria meningitidis WUE2594); test: native gel or EMSA
[3] = molecular target: AdoMet synthetase (MAT, MetK); test: coupled enzyme assay, Dixon plot; format: biochemical, Campylobacter jejuni
[4] = molecular target: T1, AdoMet synthetase (MAT, MetK) (Pseudomonas aeruginosa, UniProt Q9I5Z0); test: coupled enzyme assay, Dixon plot; format: biochemical
T1 sequence (Q9I5Z0 1-396): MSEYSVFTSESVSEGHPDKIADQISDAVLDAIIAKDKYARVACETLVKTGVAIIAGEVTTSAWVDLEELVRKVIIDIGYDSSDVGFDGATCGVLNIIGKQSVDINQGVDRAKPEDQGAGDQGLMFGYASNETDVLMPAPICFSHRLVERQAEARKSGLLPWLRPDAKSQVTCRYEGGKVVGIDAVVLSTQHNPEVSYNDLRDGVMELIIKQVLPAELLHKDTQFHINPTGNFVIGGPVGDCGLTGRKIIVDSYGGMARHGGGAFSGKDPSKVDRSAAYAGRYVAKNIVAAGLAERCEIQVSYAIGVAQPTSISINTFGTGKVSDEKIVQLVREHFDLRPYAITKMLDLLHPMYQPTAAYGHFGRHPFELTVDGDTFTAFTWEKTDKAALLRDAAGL

dynamic light scattering = molecular target: the molecule itself; test: dynamic light scattering
[5] = substrate: COC(=O)[C@@H](N)CCSC; test: coupled pyrophosphate enzyme assay, alternative substrate kinetics; format: biochemical, Escherichia coli; details: MgATP L-methionine binding site
[6] = substrate: CCOC(=O)[C@@H](N)CCSC; test: as above; format: biochemical, Escherichia coli; details: MgATP L-methionine binding site
[7] = substrate: CSCC[C@H](N)C(=O)O; test: coupled pyrophosphate enzyme assay, steady-state kinetics; format: biochemical, Pseudomonas aeruginosa; details: MgATP L-methionine binding site of the active site

## S-adenosylmethionine synthetase (AdoMet synthetase, MAT) from Neisseria meningitidis WUE2594 (enzyme)
[1]
  stoichiometry N: 4
[2]
  stoichiometry N: 4

## CSCC[C@H](N)CC(=O)O [β-methionine, (R)-3-amino-5-(methylthio)pentanoic acid]
[3]
  Ki: ~7 mM

## NC(=O)SC[C@H](N)C(=O)O [S-carbamyl-L-cysteine]
[4]
  Ki: ~4 mM

B1: S-adenosylmethionine synthetase (AdoMet synthetase, MAT) from Campylobacter jejuni 81-176 (enzyme, UniProt Q0P9F8 1-398, looked up)
chain: MYLFTSEVVSAGHPDKCADIIADTIVDILLKNDKNSRVASEVFVAGNKVVIGGEVKSNHKLSKADYDNLVKDVLKNIGYDGAGHFSKEQCLHPDEVDVMVFLNEQSPDINQGVDQEDGETGAGDQGIMFGFASCEAEEYMPAAISYARMLCDRVYAYAKANPHELGVDIKTQVTIDYGTKANFENCKPQSIHTIVVSAPCVESMKIEDLRSLVMKLILDSNLPKELFDPNKTRILINPTGKYVNHSSLHDSGLTGRKLIVDSFGGYSPIGGGAQSSKDYTKVDRSGLYAGRWLAKNIVAAGLAKKCIVQLSYAIGVAKPTSVSVDCMGTNTSVNDDVLSDFVMQNFSLTPNWIRDKFHLDKPSKETFLYADVAARGQVGQKDYPWEKLDALEQFKKLL
Dynamic light scattering
  stoichiometry N: 2

B2: AdoMet synthetase (MAT, MetK) (Escherichia coli K-12) (protein)
chain: AKHLFTSESVSEGHPDKIADQISDAVLDAILEQDPKARVACETYVKTGMVLVGGEITTSAWVDIEEITRNTVREIGYVHSDMGFDANSCAVLSAIGKQSPDINQGVDRADPLEQGAGDQGLMFGYATNETDVLMPAPITYAHRLVQRQAEVRKNGTLPWLRPDAKSQVTFQYDDGKIVGIDAVVLSTQHSEEIDQKSLQEAVMEEIIKPILPAEWLTSATKFFINPTGRFVIGGPMGDCGLTGRKIIVDTYGGMARHGGGAFSGKDPSKVDRSAAYAARYVAKNIVAAGLADRCEIQVSYAIGVAEPTSIMVETFGTEKVPSEQLTLLVREFFDLRPYGLIQMLDLLHPIYKETAAYGHFGREHFPWEKTDKAQLLRDAAGLK
[5]
  Km: 170 ± 50 µM
[6]
  Km: 120 ± 10 µM

B3: S-adenosylmethionine synthetase (AdoMet synthetase, MAT) from Pseudomonas aeruginosa PA01 (enzyme, UniProt B7V4D3 1-396, looked up)
chain: T1 sequence (Q9I5Z0 1-396)
Dynamic light scattering
  stoichiometry N: 4
[7]
  Km: 40 ± 5 µM

B4: S-adenosylmethionine synthetase (AdoMet synthetase, MAT) from Escherichia coli K12 (enzyme, UniProt B1XFA4 1-384, looked up)
chain: MAKHLFTSESVSEGHPDKIADQISDAVLDAILEQDPKARVACETYVKTGMVLVGGEITTSAWVDIEEITRNTVREIGYVHSDMGFDANSCAVLSAIGKQSPDINQGVDRADPLEQGAGDQGLMFGYATNETDVLMPAPITYAHRLVQRQAEVRKNGTLPWLRPDAKSQVTFQYDDGKIVGIDAVVLSTQHSEEIDQKSLQEAVMEEIIKPILPAEWLTSATKFFINPTGRFVIGGPMGDCGLTGRKIIVDTYGGMARHGGGAFSGKDPSKVDRSAAYAARYVAKNIVAAGLADRCEIQVSYAIGVAEPTSIMVETFGTEKVPSEQLTLLVREFFDLRPYGLIQMLDLLHPIYKETAAYGHFGREHFPWEKTDKAQLLRDAAGLK
Dynamic light scattering
  stoichiometry N: 4
